According to the DeepSol protein solubility set:

assay: soluble on expression in E. coli; label from the status in PepcDB or PDB records

| Sequence | soluble on expression in E. coli |
| --- | --- |
| MSLTKVLVIDPKIAGMSGDMFVSSLLALTNSYDLMDELILELEKLNNCNSFKVSVMDEKVNGISAKQLKIEIDEERIKNPDELKEIIINTSKNLMSEKGVKICENIINDLIEAEKKLHGDHFHLHEISSLDTVFDIVLPVLILEKNGFLDGKIYSTPPSLGNGRISMDHGIIPSPAPSTLEILCKHEIKCSKVDSEFELLTPTGAAILSNVTDEFTDSYPEIVLLKTAYGAGTKRMEHVPNVLRLVEGKTDEKIIEKTVILETNIDDISSEILAYAVERLLNEGAPDVFITPVFGKKNRPSSMISVICPYHVHEKFAKILIEETGTLGVRINHYDKIRAKRRMEKLTLDINGVNFGFDVKISDLNGEIVNIKPEFEDLKKIAKNLNIPLRDVLRHANNKIKEIYGFEGHHHHHH | soluble |
| MGSDKIHHHHHHMTAQFDDATLTKRLAKGTGEILKGVRNVGLLRGRELGEAGDDLAQNWIARVLEQHRPDDGFLSEEAADNPERLGKDRVWIIDPLDGTKEFATGRQDWAVHIALVENGVPTHAAVNLPDLGVVFHSSEVRAVGGPYAKKIAISHNRPPAVATHIAESLGFTAEPMGSAGAKAMHVLLGDYDAYIHAGGQYEWDSAAPVGVSLAAGLHCSRLDGTPLNYNNKDTYLPDVLICRPELADDILTMAAAFREENGSY | not soluble |
| MSEVIDLASPIEAHGETLSQVTFRRPTAQEARAIKALPYKIDKNEDVSLDLDVAAKYIAVCAGIPPSSVNQMDLCDINTLSWKVASFFMAAASATLKD | soluble |
| MSLAPAAVLELPSPTGLHPVGRRTLHLVDRHRPDPWVPAARGRELMVSVSYPARSSGARPAAYMTRSEAQRLLELKGLAGVVPAATVAGTRTHAQADAPPAPGRFPLVLLSPGFSVPRTTLTALAVDVAARGYVVAAVDHAYESVGTEFPGGRVPPCVACDRVGVDVDEATVVRGRAADLSFVIDELTGRRSTGALARLIDPGRIGVAGHSIGGAAALATMAADRRVRAGVNLDGGFFVPDAGHRIGGRPFMMVGAEAVHGPGNTAGDWAATYDRLHGWKRWLTVSGAGHFSFTDIPWLAEQLGLPDPQVPLPGERGWYITRDYVGAFFDLHLRGLPQPLLHGPTSSHPEVGFHRPEGHHHHHH | soluble |
| GSHMKEPKLSPKQERFIEEYFINDMNATKAAIAAGYSKNSASAIGAENLQKPAIRARIDARLK | soluble |
| MSLQMERRGISALPLHYGHPPEYLFKRAVKLSGIMAEIIVDTYGQGELIRRLADPFWFHSLSLVTGFDWNSSGTTVFTLSALKEYLSTRDLGVKVCGGKASAMADMRADLLSSVETGILKEDDKEYVYENARRIAKIDNSLLQDGYDLYMQFVVVSDRGRHAVIQQGMNSEDRMARRYHWLIGNERVDVEGRYGLSADKTSLNVLDLSATESRDNRSAIVASVREGEVWRFRSGAQSTLDNFSLPFLDLSGRVNWKKLRDLYEYGVDDFEKIYMEKGIGKSTLRALSYIAEVIYGPKASFRDPVKFSFAVGGKDGIPKPVNTYDYDRAIEFFSDLIREKDLNVREKETIARSLAHLSQMKTNFYSEGHHHHHH | soluble |
| MSLATYFMYPSTGGLNTYIAVLKKTLEAQGYTVDVLARKPGPRLHLLSEEINMNTLRKMMSKPLNHYYKKHGQFSEPYIIKQELDRYVFELSSALLPIETYDLIHAQDVVSTRALARVKPAHIPLVTTIHGLYSEERFNRGVIQTKNDHSWKYSLAQEYIGALSADKVIVLTNWMRQRFQDQLNISSHHFETIPNGMFIEEFTNKLTNKTQVHIPESKKFTILCPARLVAEKDHRTLIDAVQLLKKEREDFICLLAGDGELREELEGYCREKEVQDVCLFLGNRNDIPELMNRSDLVVLPSLQENLPFTVMEAQVAGKPLIVSNAGGLPEMVHDGVTGRLFKKRDSRQLAFILKELMDHDEDRQLLGNNAKDWGRSQWSANTFCEKIKTVYAEALEQKKKEPRLMEFESVNRPTYHTLELHRFFEKSLWKKIDQCLPSNYTIPDPAFIKSLTTYEGHHHHHH | not soluble |
| MGNALVKKEPPPPVVLVPPLFDYPPLSARTRMLESSYNLLFGKLALRCLFEDYFEEANRFTGKFLLKPTDDPHVDLVASVSGAVDGRVEGDFVGNAEFRWQSDVDDPHTFVDLSVSTSNPVLLMRSSAYYPKYGIGAFAVYPLISKITGKSSEEYRIMGLRYGSTNLSVGATVTPFSANNELPKHAWLVSKMGSLTVGVQYEPLHGSKDLAKYTDPRNWSCAAGYGVGSQSPLTPSFNIGIELARSSQFIASFYQHVVVQRRVQNPFEENQVVGITNYIDFGFELQSRVDDSKTPPNAPDSLLQVAASWQANKNFLLKGKVGAHSSTLSLAFKSWWKPSFAFNISATTNHRTGNVQCGFGLRVDNLREASYQRADPNFVMLTPNKEHLAEGIVWKMGKRPMYQADVDAENFSELPKELRPSQKIL | soluble |
| MGSDKIHHHHHHMQIKNTQLGHIAWCETTAQHIAPQDFAVDGWREKNAVVGQSKGRYTTWFVKTDNSDSPQTWVLRHYWRGGMMEKFSRDAYFYTGLQRTRAVAELAILEVLYQEGFAVPRPIAANVERFGLWYRADIIIEHVAGANDLVAYLSHNPMTESQWYLLGETIAKFHQRGVYHADLNAKNILLAHGEFYLIDFDRGELRTPQPTWQQANLDRLLRSFNKEHAKLTTLQFSQQHWLQLLAGYQSINPI | not soluble |
| MHHHHHHGRIGIPRERLTNETRVAATPKTVEQLLKLGFTVAVESGAGQLASFDDKAFVQAGAEIVEGNSVWQSEIILKVNAPLDDEIALLNPGTTLVSFIWPAQNPELMQKLAERNVTVMAMDSVPRISRAQSLDALSSMANIAGYRAIVEAAHEFGRFFTGQITAAGKVPPAKVMVIGAGVAGLAAIGAANSLGAIVRAFDTRPEVKEQVQSMGAEFLELDFKEEAGSGDGYAKVMSDAFIKAEMELFAAQAKEVDIIVTTALIPGKPAPKLITREMVDSMKAGSVIVDLAAQNGGNCEYTVPGEIFTTENGVKVIGYTDLPGRLPTQSSQLYGTNLVNLLKLLCKEKDGNITVDFDDVVIRGVTVIRAGEITWPAPPIQVSAQPQAAQKAAPEVKTEEK | soluble |
| MFTGIINHCGEIRSMEALPDHTVLSIDTQFSDLQLGESIAIDGICVTVTQKKLGSFSCDLSPETLACTKARDYKIGSRINLERALRLTDRLGGHFVSGHVDQTAILESQKKHAEFIQMDFKNSSEERWNYLIPKGSVAVNGVSLTVNSVAGDYFSVMLIPHTLEHTNLNDLKEGQIVNIEFDLITKIIVQKTREALSHAKTI | soluble |
| MGSDKIHHHHHHMLPGIVVKPLKTFADERGFFTEIMRRDWDVFEDEILQANMSVTYPGIVRAWHKHERGQVDYFVCIGGAIKICAYDDETQELAEIVSTGKNLQVVRVPGHYWHGFKAIGVEPAVLVYFVSRLYDYENPDEVRRPWNDSTIVPAKINGREDDPRCGKPWDWFYPPHK | not soluble |
| MGHHHHHHSHCPQESVYCENKCGARMMRRLLAQHATSECPKRTQPCTYCTKEFVFDTIQSHQYQCPRLPVACPNQCGVGTVAREDLPGHLKDSCNTALVLCPFKDSGCKHRCPKLAMARHVEESVKP | not soluble |
| MGSDKIHHHHHHMYTFQPGDHLVTNIDPLGLTEHHGLYVGHGHVIHLSKQGIIEEINLQQFAGGHSVRVKKSTLFPHQAIELARSQLGHSPYGVATNNCEHFVNECLEGSSTSNQVSNLTHIALQGSARAGLLGSSASKLATGTVANVVLTSTAIKMTGEYLGLPDNVNTLLGTPGDLVAKPAECLLKGTSQTLGETYTCLRQGEMTGAGIKLVTGSIETGLNTVLTTAEVGINGVKAGAELIADAWHWLRS | not soluble |
| MSLTSDKIFFHHLDNLRPSLTPVKELKEPVGQIVCTDKGILAVEQNKVLIPPAWNKTFAWGYADLSCRLGTYESDKAVTVYECLSEWGQILCAVCPNPKLVITGGTSTVVCVWEMGTSKEKAKPLTLKQALLGHTDTVTCATASLAYHIIVSGSRDRTCIIWDLNKLSFLTQLRGHRAPVSALCINELTGDIVSCAGTYIHVWSINGNPIVSVNTFTGRSQQIVCCCMSEMNEWDTQNVIVTGHSDGVVRFWRMEFLQVPETPAPEPVEDLEMQEGCPEAQIGQQAQDDDSSDSETEEPSVSQDPKDTSSQPSSTSHRPRAASCRATATWCTDSGSDDSRRWSDQLSLDEKDGFIFVNYSEGQTRAHLQGPLAHPHPNPIEARSYSRLKPGYRWERQLVFRSKLTMHTAFDRKDNTHPAEVTALGVSKDHSRILVGDSRGRVFSWSVSDQPGRSAADHWVKDEGGDSCSGCSVRFSLTERRHHCRNCGQLFCQKCSRFQSEIKRLKISSPVRVCQNCYYSLQHERGAEDGPRNCEGHHHHHH | not soluble |
| EREEEPAVQGNPDESLTVEGALEYVELAPQLNLPQQEEDADFHTVAGLIMEELQTIPDVGDFADFHGWRFEVVEKEGQRIERVKITKLP | soluble |
| MGSDKIHHHHHHMAPEDWLRAQMQGEIVALVHSHPGGLPWLSEADRRLQVQSDLPWWLVCRGTIHKFRCVPHLTGRRFEHGVTDCYTLFRDAYHLAGIEMPDFHRGDDWWRHGQNLYLDNLEATGLYQVPLSSAQPGDVLLCCFGSSVPNHAAIYCGDGELLHHIPEQLSKRERYTDKWQRRTHSLWRHREWHASAFTGICNDLAAASTFV | not soluble |
| MGSDKIHHHHHHMMELINNRGMRDWMIFIKVAEVGNLSRAARELDISISAVSKSLSRLENSIEVTLLRRDSHHLELTGAGQTAYASMKRITSSFQSLLDELRNPDKIIRGSIKFSAPAIVCEFLANKWIWEFTASYPDTKIYLDSRERSDFFSKSLEFDELVFKSGIIESEDLVYRKISPLKLVLCASPKYIRKYGRISHPGDLENHIIVGLHNHGLSGPLTLFRQDESYTISGAVNVHLSSNNLLSVLNLVLEGKGINLMTPAWLATKYLKNNELEIILPEWRVPDLPIYLVWRHRQYYSPLFQRFLSFIEDKWNNRPQIDFLNDD | not soluble |
| MGSDKIHHHHHHMNTPREVTLHFLRTAGHPLTRWALQRQPPSPKQLEEEFLKIPSNFVSPEDLDIPGHASKDRYKTILPNPQSRVCLGRAQSQEDGDYINANYIRGYDGKEKVYIATQGPMPNTVSDFWEMVWQEEVSLIVMLTQLREGKEKCVHYWPTEEETYGPFQIRIQDMKECPEYTVRQLTIQYQEERRSVKHILFSAWPDHQTPESAGPLLRLVAEVEESPETAAHPGPIVVHCSAGIGRTGCFIATRIGCQQLKARGEVDILGIVCQLRLDRGGMIQTAEQYQFLHHTLALYAGQLPEEPSP | soluble |
| HKRPVPAKRYDNVTILFSGIVGFNAFCSKHASGEGAMKIVNLLNDLYTRFDTLTDSRKNPFVYKVETVGDKYMTVSGLPEPCIHHARSICHLALDMMEIAGQVQVDGESVQITIGIHTGEVVTGVIGQRMPRYCLFGNTVNLTSRTETTGEKGKINVSEYTYRCLMSPENSDPQFHLEHRGPVSMKGKKEPMQVWFLSRKNTGTEETKQDDDAENLYFQ | soluble |
| MGSSHHHHHHSSGLVPRGSHELGGRVSGSLAWRVARGETGLERKEILFIPSENEKISKQFHLRYDIVRDRYIRVSDNNTNISGWENGVWKMESIFRKVEKDWNMVYLARKEGSSFAYISWKFECGSAGLKVDTVSIRTSSQSFESGSVRWKLRSETAQVNLLGDKNLRSYNDFSGATEVTLEAELSRGDGDVAWQHTQLFRQSLNDSGENGLEIIITFNDL | soluble |
| DKREYFVYLPPTYGKGDNHYSVIYMQDGDIVIKILNELMDLIENKSKKDVYDESIIVGVKPIVRNDDYTPWEAEAISKGSSEFGGRGDIYLNFLIKKLKPYIDNKYRTKKEKN | not soluble |
